# In patent US6120991:
# How the values were obtained:
# integrin α6 β4 (human) = integrin α6 β4 (human) (UniProt P23229)
# integrin α3 β1 (human) = integrin α3 β1 (human) (UniProt P26006)
substance,measurement,setting,value
epiligrin-ECM^t (epiligrin left on the substratum after HFK were detached from their ECM with trypsin) (ligand),% adherent 51Cr-labeled HFK cells on epiligrin-ECM^t at 4° C. (time course) (% adherent cells),integrin α6 β4 (human),28
same,% adherent HFF control cells on epiligrin-ECM^t at 37° C. (time course) (% adherent cells),integrin α3 β1 (human),57
